This passage reports Km, Vmax and kcat results from PMC3177862, “Characterization of the Biosynthesis, Processing and Kinetic Mechanism of Action of the Enzyme Deficient in Mucopolysaccharidosis IIIC” (PLoS ONE, 2011).

Substrate in series [1]: CC(=O)SCCNC(=O)CCNC(=O)[C@H](O)C(C)(C)COP(=O)(O)OP(=O)(O)OC[C@H]1O[C@@H](n2cnc3c(N)ncnc32)[C@H](O)[C@@H]1OP(=O)(O)O
In words: coupled fluorescence assay with beta-hexosaminidase (4-methylumbelliferone release), Michaelis-Menten fit. The class given is biochemical, Homo sapiens. The following applies: MU-GlcNH2 fixed at 1 mM, CP buffer pH 5.5, 37 °C, liposomes with 20% PI, random sequential ternary-complex mechanism. An excerpt:
(§1) coupled fluorescence assay with beta-hexosaminidase (4-methylumbelliferone release), Michaelis-Menten fit on N-acetyltransferase-His8Flag (heparin acetyl-CoA:alpha-glucosaminide N-acetyltransferase)

Substrate in series [2]: Cc1cc(=O)oc2cc(O[C@@H]3O[C@H](CO)[C@@H](O)[C@H](O)[C@H]3N)ccc12
Described as above. The class given is biochemical, Homo sapiens. As to conditions: acetyl-CoA fixed at 2 mM, CP buffer pH 5.5, 37 °C, liposomes with 20% PI, random sequential ternary-complex mechanism.
Excerpt: as §1

B1: N-acetyltransferase-His8Flag (heparin acetyl-CoA:alpha-glucosaminide N-acetyltransferase) (Homo sapiens) (protein)
chain: RDAQAAPPRDLDKKRHAELKMDQALLLIHNELLWTNLTVYWKSECCYHCLFQVLVNVPQSPKAGKPSAAAASVSTQHGSILQLNDTLEEKEVCRLEYRFGEFGNYSLLVKNIHNGVSEIACDLAVNEDPVDSNLPVSIAFLIGLAVIIVISFLRLLLSLDDFNNWISKAISSRETDRLINSELGSPSRTDPLDGDVQPATWRLSALPPRLRSVDTFRGIALILMVFVNYGGGKYWYFKHASWNGLTVADLVFPWFVFIMGSSIFLSMTSILQRGCSKFRLLGKIAWRSFLLICIGIIIVNPNYCLGPLSWDKVRIPGVLQRLGVTYFVVAVLELLFAKPVPEHCASERSCLSLRDITSSWPQWLLILVLEGLWLGLTFLLPVPGCPTGYLGPGGIGDFGKYPNCTGGAAGYIDRLLLGDDHLYQHPSSAVLYHTEVAYDPEGILGTINSIVMAFLGVQAGKILLYYKARTKDILIRFTAWCCILGLISVALTKVSENEGFIPVNKNLWSLSYVTTLSSFAFFILLVLYPVVDVKGLWTGTPFFYPGMNSILVYVGHEVFENYFPFQWKLKDNQSHKEHLTQNIVATALWVLIAYILYRKKIFWKI
notes: full length 635 aa with C-terminal His8-Flag tag kept; stably expressed in HeLa cells, DDM extract, anti-Flag purified; signal peptide cleaved; mix of 62 kDa precursor and processed alpha (Lys43-Asn144, N-terminus KKRHAE) and beta (Gly145-Ile635, N-terminus GVSEIA) chains; native about 80 kDa, monomer
For orientation: Km means the concentration of substrate that gives half-maximal velocity. Usually Vmax stands for the top rate of the reaction or transport when substrate is in excess. For orientation: kcat means the number of substrate molecules converted per active site and unit of time at saturation. Regarding B1, in series [1], the Michaelis constant (Km) is 500 ± 20 µM, the maximum rate (Vmax) is 6.33 µmol/min/mg and the kcat came out at 7.33 ± 0.1 s⁻¹. In series [2], the Km was 450 ± 90 µM, the Vmax was determined as 9 µmol/min/mg and the catalytic constant (kcat) is 10.4 ± 1.14 s⁻¹.
